Legend:
[1] = target: NKG2d (NKG2-D type II integral membrane protein) on NKL cells / NK cells (human) (UniProt P26718); assay: flow cytometry on NKL cells, secondary antibody alone without primary antibody (background control), column 60 nM
[2] = target: NKG2d (NKG2-D type II integral membrane protein) on NKL cells / NK cells (human) (UniProt P26718); assay: flow cytometry on NKL cells, secondary antibody alone without primary antibody (background control), column 0.6 nM
[3] = target: NKG2d (NKG2-D type II integral membrane protein) on NKL cells / NK cells (human) (UniProt P26718); assay: flow cytometry on NKL cells, secondary antibody alone without primary antibody (background control), column 6 nM

Sequence of NKG2d (NKG2-D type II integral membrane protein) on NKL cells / NK cells (human) (P26718 whole entry): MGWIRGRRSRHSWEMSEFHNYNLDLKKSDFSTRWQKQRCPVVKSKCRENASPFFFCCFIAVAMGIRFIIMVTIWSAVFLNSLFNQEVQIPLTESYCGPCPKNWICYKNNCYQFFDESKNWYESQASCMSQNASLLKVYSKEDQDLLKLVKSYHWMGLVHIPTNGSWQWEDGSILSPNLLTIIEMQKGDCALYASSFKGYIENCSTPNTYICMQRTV

Work on “secondary antibody only (Goat anti hu-Fc AF647)” yielded a geomean fluorescence [1] of 63.8, a geomean fluorescence [2] of 92.6 and a geomean fluorescence [3] of 115.

— US20240182582A1
